Biological target: T1, TNFR1 (Homo sapiens, UniProt P19438)
T1 chain: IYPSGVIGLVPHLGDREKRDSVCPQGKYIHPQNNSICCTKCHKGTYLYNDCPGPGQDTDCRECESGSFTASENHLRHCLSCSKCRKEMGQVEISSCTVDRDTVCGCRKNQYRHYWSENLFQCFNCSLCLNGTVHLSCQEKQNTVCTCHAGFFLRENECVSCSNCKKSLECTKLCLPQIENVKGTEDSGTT
Test: yeast display SC50

B1: A88S (designed binder)
chain: MTLQELLREEALRRAEAEAFRYALELLAEKFPEQKEYLLDLAEEIESQIRSLSGVDVEDVRKFLDKEWAWVKELLAEHPAELAEVEASRAARLAELRAEVEAKVAA
B1 was tested, and the “apparent Kd (screen)” value was 0.539 nM.

B2: V55I (designed binder)
chain: MTLQELLREEALRRAEAEAFRYALELLAEKFPEQKEYLLDLAEEIESQIRSLSGIDVEDVRKFLDKEWAWVKELLAEHPAELAEVEAARAARLAELRAEVEAKVAA
B2 was tested, and the “apparent Kd (screen)” value was 0.539 nM.

B3: L74Q (designed binder)
chain: MTLQELLREEALRRAEAEAFRYALELLAEKFPEQKEYLLDLAEEIESQIRSLSGVDVEDVRKFLDKEWAWVKEQLAEHPAELAEVEAARAARLAELRAEVEAKVAA
For B3, the “apparent Kd (screen)” value was 1.54 nM.

B4: L38C (designed binder)
chain: MTLQELLREEALRRAEAEAFRYALELLAEKFPEQKEYCLDLAEEIESQIRSLSGVDVEDVRKFLDKEWAWVKELLAEHPAELAEVEAARAARLAELRAEVEAKVAA
With B4 the “apparent Kd (screen)” value was 4.39 nM.

B5: E43W (designed binder)
chain: MTLQELLREEALRRAEAEAFRYALELLAEKFPEQKEYLLDLAWEIESQIRSLSGVDVEDVRKFLDKEWAWVKELLAEHPAELAEVEAARAARLAELRAEVEAKVAA
With B5 the “apparent Kd (screen)” value was 0.539 nM.

B6: E9S (designed binder)
chain: MTLQELLRSEALRRAEAEAFRYALELLAEKFPEQKEYLLDLAEEIESQIRSLSGVDVEDVRKFLDKEWAWVKELLAEHPAELAEVEAARAARLAELRAEVEAKVAA
For B6, the “apparent Kd (screen)” value was 0.869 nM.

B7: E25Y (designed binder)
chain: MTLQELLREEALRRAEAEAFRYALYLLAEKFPEQKEYLLDLAEEIESQIRSLSGVDVEDVRKFLDKEWAWVKELLAEHPAELAEVEAARAARLAELRAEVEAKVAA
In the case of B7, the “apparent Kd (screen)” value is reported as 0.653 nM.

B8: L12G (designed binder)
chain: MTLQELLREEAGRRAEAEAFRYALELLAEKFPEQKEYLLDLAEEIESQIRSLSGVDVEDVRKFLDKEWAWVKELLAEHPAELAEVEAARAARLAELRAEVEAKVAA
In the case of B8, the “apparent Kd (screen)” value is reported as 2.25 nM.

B9: L64W (designed binder)
chain: MTLQELLREEALRRAEAEAFRYALELLAEKFPEQKEYLLDLAEEIESQIRSLSGVDVEDVRKFWDKEWAWVKELLAEHPAELAEVEAARAARLAELRAEVEAKVAA
B9 was tested, and the “apparent Kd (screen)” value was 26.9 nM.

B10: K30F (designed binder)
chain: MTLQELLREEALRRAEAEAFRYALELLAEFFPEQKEYLLDLAEEIESQIRSLSGVDVEDVRKFLDKEWAWVKELLAEHPAELAEVEAARAARLAELRAEVEAKVAA
B10 was tested, and the “apparent Kd (screen)” value was 0.539 nM.

B11: L96S (designed binder)
chain: MTLQELLREEALRRAEAEAFRYALELLAEKFPEQKEYLLDLAEEIESQIRSLSGVDVEDVRKFLDKEWAWVKELLAEHPAELAEVEAARAARLAESRAEVEAKVAA
For B11, the “apparent Kd (screen)” value was 0.539 nM.

B12: K72W (designed binder)
chain: MTLQELLREEALRRAEAEAFRYALELLAEKFPEQKEYLLDLAEEIESQIRSLSGVDVEDVRKFLDKEWAWVWELLAEHPAELAEVEAARAARLAELRAEVEAKVAA
In the case of B12, the “apparent Kd (screen)” value is reported as 0.79 nM.

B13: L74Y (designed binder)
chain: MTLQELLREEALRRAEAEAFRYALELLAEKFPEQKEYLLDLAEEIESQIRSLSGVDVEDVRKFLDKEWAWVKEYLAEHPAELAEVEAARAARLAELRAEVEAKVAA
With B13 the “apparent Kd (screen)” value was 0.869 nM.

B14: L24N (designed binder)
chain: MTLQELLREEALRRAEAEAFRYANELLAEKFPEQKEYLLDLAEEIESQIRSLSGVDVEDVRKFLDKEWAWVKELLAEHPAELAEVEAARAARLAELRAEVEAKVAA
B14 was tested, and the “apparent Kd (screen)” value was 0.405 nM.

B15: D56S (designed binder)
chain: MTLQELLREEALRRAEAEAFRYALELLAEKFPEQKEYLLDLAEEIESQIRSLSGVSVEDVRKFLDKEWAWVKELLAEHPAELAEVEAARAARLAELRAEVEAKVAA
In the case of B15, the “apparent Kd (screen)” value is reported as 1.27 nM.

B16: V104M (designed binder)
chain: MTLQELLREEALRRAEAEAFRYALELLAEKFPEQKEYLLDLAEEIESQIRSLSGVDVEDVRKFLDKEWAWVKELLAEHPAELAEVEAARAARLAELRAEVEAKMAA
With B16 the “apparent Kd (screen)” value was 0.653 nM.

B17: R13S (designed binder)
chain: MTLQELLREEALSRAEAEAFRYALELLAEKFPEQKEYLLDLAEEIESQIRSLSGVDVEDVRKFLDKEWAWVKELLAEHPAELAEVEAARAARLAELRAEVEAKVAA
In the case of B17, the “apparent Kd (screen)” value is reported as 0.277 nM.

B18: L82I (designed binder)
chain: MTLQELLREEALRRAEAEAFRYALELLAEKFPEQKEYLLDLAEEIESQIRSLSGVDVEDVRKFLDKEWAWVKELLAEHPAEIAEVEAARAARLAELRAEVEAKVAA
In the case of B18, the “apparent Kd (screen)” value is reported as 0.49 nM.

B19: A83Q (designed binder)
chain: MTLQELLREEALRRAEAEAFRYALELLAEKFPEQKEYLLDLAEEIESQIRSLSGVDVEDVRKFLDKEWAWVKELLAEHPAELQEVEAARAARLAELRAEVEAKVAA
In the case of B19, the “apparent Kd (screen)” value is reported as 0.446 nM.

B20: E81V (designed binder)
chain: MTLQELLREEALRRAEAEAFRYALELLAEKFPEQKEYLLDLAEEIESQIRSLSGVDVEDVRKFLDKEWAWVKELLAEHPAVLAEVEAARAARLAELRAEVEAKVAA
For B20, the “apparent Kd (screen)” value was 0.593 nM.

B21: L38S (designed binder)
chain: MTLQELLREEALRRAEAEAFRYALELLAEKFPEQKEYSLDLAEEIESQIRSLSGVDVEDVRKFLDKEWAWVKELLAEHPAELAEVEAARAARLAELRAEVEAKVAA
B21 was tested, and the “apparent Kd (screen)” value was 11.4 nM.

B22: E44V (designed binder)
chain: MTLQELLREEALRRAEAEAFRYALELLAEKFPEQKEYLLDLAEVIESQIRSLSGVDVEDVRKFLDKEWAWVKELLAEHPAELAEVEAARAARLAELRAEVEAKVAA
With B22 the “apparent Kd (screen)” value was 6.43 nM.

B23: D40S (designed binder)
chain: MTLQELLREEALRRAEAEAFRYALELLAEKFPEQKEYLLSLAEEIESQIRSLSGVDVEDVRKFLDKEWAWVKELLAEHPAELAEVEAARAARLAELRAEVEAKVAA
In the case of B23, the “apparent Kd (screen)” value is reported as 0.539 nM.

B24: V71W (designed binder)
chain: MTLQELLREEALRRAEAEAFRYALELLAEKFPEQKEYLLDLAEEIESQIRSLSGVDVEDVRKFLDKEWAWWKELLAEHPAELAEVEAARAARLAELRAEVEAKVAA
With B24 the “apparent Kd (screen)” value was 2.48 nM.

B25: E95Y (designed binder)
chain: MTLQELLREEALRRAEAEAFRYALELLAEKFPEQKEYLLDLAEEIESQIRSLSGVDVEDVRKFLDKEWAWVKELLAEHPAELAEVEAARAARLAYLRAEVEAKVAA
In the case of B25, the “apparent Kd (screen)” value is reported as 0.718 nM.

B26: K35C (designed binder)
chain: MTLQELLREEALRRAEAEAFRYALELLAEKFPEQCEYLLDLAEEIESQIRSLSGVDVEDVRKFLDKEWAWVKELLAEHPAELAEVEAARAARLAELRAEVEAKVAA
With B26 the “apparent Kd (screen)” value was 0.446 nM.

B27: S53G (designed binder)
chain: MTLQELLREEALRRAEAEAFRYALELLAEKFPEQKEYLLDLAEEIESQIRSLGGVDVEDVRKFLDKEWAWVKELLAEHPAELAEVEAARAARLAELRAEVEAKVAA
With B27 the “apparent Kd (screen)” value was 2.48 nM.

B28: L52Q (designed binder)
chain: MTLQELLREEALRRAEAEAFRYALELLAEKFPEQKEYLLDLAEEIESQIRSQSGVDVEDVRKFLDKEWAWVKELLAEHPAELAEVEAARAARLAELRAEVEAKVAA
B28 was tested, and the “apparent Kd (screen)” value was 0.539 nM.

B29: E73M (designed binder)
chain: MTLQELLREEALRRAEAEAFRYALELLAEKFPEQKEYLLDLAEEIESQIRSLSGVDVEDVRKFLDKEWAWVKMLLAEHPAELAEVEAARAARLAELRAEVEAKVAA
B29 was tested, and the “apparent Kd (screen)” value was 0.653 nM.

B30: L12D (designed binder)
chain: MTLQELLREEADRRAEAEAFRYALELLAEKFPEQKEYLLDLAEEIESQIRSLSGVDVEDVRKFLDKEWAWVKELLAEHPAELAEVEAARAARLAELRAEVEAKVAA
With B30 the “apparent Kd (screen)” value was 1.05 nM.

B31: R13K (designed binder)
chain: MTLQELLREEALKRAEAEAFRYALELLAEKFPEQKEYLLDLAEEIESQIRSLSGVDVEDVRKFLDKEWAWVKELLAEHPAELAEVEAARAARLAELRAEVEAKVAA
For B31, the “apparent Kd (screen)” value was 0.869 nM.

B32: L64A (designed binder)
chain: MTLQELLREEALRRAEAEAFRYALELLAEKFPEQKEYLLDLAEEIESQIRSLSGVDVEDVRKFADKEWAWVKELLAEHPAELAEVEAARAARLAELRAEVEAKVAA
For B32, the “apparent Kd (screen)” value was 13.8 nM.

B33: E10W (designed binder)
chain: MTLQELLREWALRRAEAEAFRYALELLAEKFPEQKEYLLDLAEEIESQIRSLSGVDVEDVRKFLDKEWAWVKELLAEHPAELAEVEAARAARLAELRAEVEAKVAA
In the case of B33, the “apparent Kd (screen)” value is reported as 2.05 nM.

B34: P79T (designed binder)
chain: MTLQELLREEALRRAEAEAFRYALELLAEKFPEQKEYLLDLAEEIESQIRSLSGVDVEDVRKFLDKEWAWVKELLAEHTAELAEVEAARAARLAELRAEVEAKVAA
For B34, the “apparent Kd (screen)” value was 0.653 nM.

B35: E44R (designed binder)
chain: MTLQELLREEALRRAEAEAFRYALELLAEKFPEQKEYLLDLAERIESQIRSLSGVDVEDVRKFLDKEWAWVKELLAEHPAELAEVEAARAARLAELRAEVEAKVAA
B35 was tested, and the “apparent Kd (screen)” value was 1.54 nM.
